Experimental data as given in patent US20220135701A1 (Genentech, published 2022).
Where two headings read alike, the source gives them in different places.

Columns and labels:
[1] = target: T1, human MerTK on human macrophages (human, UniProt Q12866 21-999); test: cell-based or functional assay
T1 sequence: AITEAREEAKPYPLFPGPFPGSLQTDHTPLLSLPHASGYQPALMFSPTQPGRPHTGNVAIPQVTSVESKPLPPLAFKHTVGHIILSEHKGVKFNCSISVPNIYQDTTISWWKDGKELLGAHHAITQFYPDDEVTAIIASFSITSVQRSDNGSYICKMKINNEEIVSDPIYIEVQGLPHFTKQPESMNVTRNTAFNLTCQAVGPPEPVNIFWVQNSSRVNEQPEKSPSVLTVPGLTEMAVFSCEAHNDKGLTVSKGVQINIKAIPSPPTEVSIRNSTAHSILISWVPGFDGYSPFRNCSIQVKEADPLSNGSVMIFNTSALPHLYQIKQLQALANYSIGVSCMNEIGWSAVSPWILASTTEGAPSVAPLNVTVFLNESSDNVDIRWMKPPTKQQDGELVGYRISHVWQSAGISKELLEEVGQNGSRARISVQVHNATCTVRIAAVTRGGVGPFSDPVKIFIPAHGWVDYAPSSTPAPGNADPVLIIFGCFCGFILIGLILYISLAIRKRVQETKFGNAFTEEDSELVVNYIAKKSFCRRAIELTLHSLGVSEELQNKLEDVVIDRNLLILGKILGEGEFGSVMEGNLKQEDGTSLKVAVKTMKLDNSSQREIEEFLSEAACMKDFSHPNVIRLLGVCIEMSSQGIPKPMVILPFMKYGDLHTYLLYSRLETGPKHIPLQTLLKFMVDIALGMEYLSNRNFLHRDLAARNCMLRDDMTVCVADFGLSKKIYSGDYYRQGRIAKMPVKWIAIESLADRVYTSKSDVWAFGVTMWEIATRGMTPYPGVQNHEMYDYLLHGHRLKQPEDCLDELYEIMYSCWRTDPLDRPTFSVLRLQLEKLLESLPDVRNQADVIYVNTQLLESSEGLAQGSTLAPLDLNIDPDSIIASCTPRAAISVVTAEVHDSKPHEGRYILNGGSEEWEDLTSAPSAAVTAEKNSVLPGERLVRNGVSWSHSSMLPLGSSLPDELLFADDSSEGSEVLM

[2] = target: T1, human MerTK on human macrophages; test: cell-based or functional assay; remark: listed apart in the source
[3] = target: T1, human MerTK on human macrophages; test: cell-based or functional assay; remark: listed apart in the source
[4] = target: T2, human MerTK (human, UniProt Q12866 26-499); test: SPR (BIAcore kinetic screen), h13B4.v16 captured on protein A chip, hMerTK as analyte, 25°C, 1:1 binding model [Cont.]
T2 construct: also called HuMER
T2 sequence: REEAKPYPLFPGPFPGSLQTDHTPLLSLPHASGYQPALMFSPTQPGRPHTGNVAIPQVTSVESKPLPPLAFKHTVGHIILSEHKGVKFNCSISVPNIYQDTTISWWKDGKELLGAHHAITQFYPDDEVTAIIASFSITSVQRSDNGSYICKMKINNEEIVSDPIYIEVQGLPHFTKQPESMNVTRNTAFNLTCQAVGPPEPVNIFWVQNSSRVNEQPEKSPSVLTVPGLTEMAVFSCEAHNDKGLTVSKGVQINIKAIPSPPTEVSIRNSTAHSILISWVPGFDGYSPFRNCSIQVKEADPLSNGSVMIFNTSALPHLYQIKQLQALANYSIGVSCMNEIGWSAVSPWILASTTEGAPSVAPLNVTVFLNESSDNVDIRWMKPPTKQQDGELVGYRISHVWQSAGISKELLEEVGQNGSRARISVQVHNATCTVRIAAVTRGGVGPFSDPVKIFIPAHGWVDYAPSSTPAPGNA
Text: (§1) For binding affinity determinations of anti-MerTK antibodies of the present disclosure as a control along with commercial MerTK antibodies, Surface Plasmon Resonance (SPR) measurement with a BIAcore™-T200 instrument was used. First, two rabbit antibodies (Y323 and 10g86_D21F11) and the anti-MerTK antibody h13B4.v16 were captured by protein A sensor chip, and eight mouse antibodies (A3KCAT,2D2,7E5G1,7N-20,590H11G1E3, MAB891, MAB8911 and MAB8912-100) were captured by goat anti-mouse IgGs sensor chip respectively on each flow cell to achieve approximately 100RU. Three-fold serial dilutions of human MerTK (0.4 nM to 100 nM) were injected in HBS-EP buffer (0.01M HEPES pH 7.4, 0.15M NaCl, 3 mM EDTA and 0.05% v/v surfactant P20) at 25° C. with a flow rate of 50 μl/min to record the binding response as a function of time. The sensorgram was fitted with one-to-one Langmuir binding model to calculate association rates (kₒₙ) and dissociation rates (koff) (BIAcore T200 evaluation software version 2.0). The binding affinity (equilibrium dissociation constant (KD)) was calculated as the ratio koff/kₒₙ.

[5] = target: T3, cynomolgus monkey MerTK (cynomolgus monkey, UniProt A0A2K5V1H9 32-505); test: SPR BIAcore T200, Ab captured, 37C
T3 construct: Soluble analyte in SPR; also called Cyno MerTK
T3 sequence: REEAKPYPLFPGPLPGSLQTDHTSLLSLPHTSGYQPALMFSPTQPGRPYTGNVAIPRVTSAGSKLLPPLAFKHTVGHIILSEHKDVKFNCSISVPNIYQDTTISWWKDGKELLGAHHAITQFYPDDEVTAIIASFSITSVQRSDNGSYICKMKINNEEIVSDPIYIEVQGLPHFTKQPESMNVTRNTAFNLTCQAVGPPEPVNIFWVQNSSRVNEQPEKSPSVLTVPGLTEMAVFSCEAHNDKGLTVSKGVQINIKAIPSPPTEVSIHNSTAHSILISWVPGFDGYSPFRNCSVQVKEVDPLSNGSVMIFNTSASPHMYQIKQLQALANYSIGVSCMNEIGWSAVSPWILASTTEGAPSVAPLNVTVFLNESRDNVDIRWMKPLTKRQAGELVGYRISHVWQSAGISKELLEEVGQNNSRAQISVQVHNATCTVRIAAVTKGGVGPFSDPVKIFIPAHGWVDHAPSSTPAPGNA
Procedure: (§2) All binding affinity determinations were obtained using Surface Plasmon Resonance (SPR) measurements from a BIAcore™-T200 instrument. Briefly, each rabbit or humanized antibody was captured to achieve approximately 100 RU (Response Units). Then, 3-fold serial dilutions of MerTK from various species (0.4 nM to 100 nM) diluted in HBS-EP buffer (0.01M HEPES pH 7.4, 0.15M NaCl, 3 mM EDTA and 0.05% v/v surfactant P20) was injected into the BIAcore™-T200 instrument at 25° C. or 37° C. with a flow rate of 30 μl/min. Association rates (kₒₙ) and dissociation rates (koff) were calculated using a simple one-to-one Langmuir binding model (BIAcore T200 evaluation software version 2.0). The equilibrium dissociation constant (KD) was calculated as the ratio koff/kₒₙ.

[6] = target: T2, human MerTK; test: SPR BIAcore T200, Ab captured, 37C
Procedure: as §2

[7] = target: T2, human MerTK; test: SPR BIAcore T200, Ab captured on protein A chip, 25C
Text: as §1

- IC50 (nM), efferocytosis by human macrophages, Average (3 Donors) [1]: 0.08 nM
- IC50 (nM), efferocytosis by human macrophages, Donor A [1]: 0.07 nM
- IC50 (nM), efferocytosis by human macrophages, Donor B [1]: 0.08 nM
- IC50 (nM), efferocytosis by human macrophages, Donor C [1]: 0.09 nM
- Max Inhibition (%), efferocytosis by human macrophages, Average (3 Donors) [1]: 83%
- Max Inhibition (%), efferocytosis by human macrophages, Donor A [1]: 91%
- Max Inhibition (%), efferocytosis by human macrophages, Donor B [1]: 82%
- Max Inhibition (%), efferocytosis by human macrophages, Donor C [1]: 77%
- fold potency in inhibiting human macrophage phagocytosis, against h10F7.v16 [2]: 5.2 fold
- IC50 (nM), efferocytosis by human macrophages, Average (3 Donors) [3]: 0.08 nM
- Kd [4]: 1.63 nM
- koff [4]: 0.000151 s⁻¹
- kon [4]: 92400 M⁻¹ s⁻¹
- Kd [5]: 5.7 nM
- Kd [6]: 5.1 nM
- Kd [7]: 1.6 nM
B1: h13B4.v16 (antibody, V domains shown)
VH: EVQLVESGEGLVQPGGSLRLSCAASGFSLSSYAMGWVRQAPGKGLEYVGIINSYGNTYYANWAKGRFTISRDNSKNTVYLQMGSLRAEDMAVYYCARDPGVSSNLWGRGTLVTVSS
VL: DIQMTQSPSTLSASVGDRVTITCQASQNIYSGLAWYQQKPGKAPKLLIYGASKLASGVPSRFSGSGSGTEFTLTISSLQPDDFATYYCQATYYSSNSVAFGGGTKVEIK
notes: Humanized, human IgG1; also called 13B4 Fully Humanized; 13B4 Humanized polished mAb
